Here are results for two molecules from publication PMC12216424.

One series concerns the target LbCas12a (UniProt A0A5S8WF58 1-1228). The series can be described thus: thermal shift.
In series [1] the target is LbCas12a (cryo-EM, assembled with crRNA) (UniProt A0A5S8WF58 1-1228). The series can be described thus: cryo-EM structure.

Turning to GCGACTCGGTTCTTGCCTAAG (XNA, all 20 linkages phosphorothioate) [PS DNA1], the binding result with LbCas12a was “binds”.
Take UAAUUUCUACUAAGUGUAGAUGGGGUUUGAGGUCCAUUACA (structured_RNA) [12a-crRNA]: the binding result in series [1] is listed as “binds”.
